What all share (assay): NMR titration
Experiment [1] has as its target 3-fluorotyrosine labeled A34F variant of the B1 domain of protein G (T2Q background).
The target is the same in experiment [2]. This is another data set of the same source.
Experiment [3] has the same target. This is another data set of the same source.
Experiment [4] shares this target. This is another data set of the same source.
Experiment [5] shares this target. This is another data set of the same source.
For experiment [6] the target is unchanged. The source holds these as a separate data set.
Experiment [7] has the same target. This is another data set of the same source.
Experiment [8] shares this target. The source holds these as a separate data set.
Experiment [9] shares this target. This is another data set of the same source.
For experiment [10] the target is unchanged. This is another data set of the same source.

Where two headings read alike, the source gives them in different places.

“3-fluorotyrosine labeled A34F variant of the B1 domain of protein G (T2Q background) (domain or fragment)”: the Kd (commonly the equilibrium constant for the complex coming apart) amounted to 45 µM in [1]; 90 µM in experiment [2]; 85 µM in [3]; 80 µM in experiment [4]; 26 µM in experiment [5]; 55 µM in experiment [6]. Moreover, the Kd in [7] came out at 17 µM; in [8] it was 25 µM; in experiment [9], 59 µM; in experiment [10] it was 95 µM.
